The source of these data is article PMC8674358, “Decoding non-canonical mRNA decay by the endoplasmic-reticulum stress sensor IRE1α” (Nature Communications, 2021).

As usually defined, the stoichiometry N is a count of units in the complex or per binding partner.

This data set deals with the molecule itself. The data set is described as follows: cross-linking; 1 μg IRE1-KR (~0.8 μM) or various concentrations in RNA cleavage buffer (20 mM HEPES pH 7.5, 50 mM K acetate, 1 mM Mg acetate, 0.05% Triton X-100), 250 μM DSS, 1 h on ice; SDS-PAGE and IRE1α immunoblot; also with CRUK-3 (5 µM), which augmented KR-0P dimerization and oligomerization. (In general: Immunoblotting shows a protein as a band on a membrane.)

B1: IRE1-KR-R887A, unphosphorylated (domain or fragment, human, UniProt O75460 547-977, looked up)
chain: GSSPSLEQDDGDEETSVVIVGKISFCPKDVLGHGAEGTIVYRGMFDNRDVAVKRILPECFSFADREVQLLRESDEHPNVIRYFCTEKDRQFQYIAIELCAATLQEYVEQKDFAHLGLEPITLLQQTTSGLAHLHSLNIVHRDLKPHNILISMPNAHGKIKAMISDFGLCKKLAVGRHSFSRRSGVPGTEGWIAPEMLSEDCKENPTYTVDIFSAGCVFYYVISEGSHPFGKSLQRQANILLGACSLDCLHPEKHEDVIARELIEKMIAMDPQKRPSAKHVLKHPFFWSLEKQLQFFQDVSDRIEKESLDGPIVKQLERGGRAVVKMDWRENITVPLQTDLAKFRTYKGGSVRDLLRAMRNKKHHYRELPAEVRETLGSLPDDFVCYFTSRFPHLLAHTYRAMELCSHERLFQPYYFHEPPEPQPPVTPDAL
notes: IRE1α, human, kinase-endoribonuclease (KR) module, residues G547-L977, with R887A; also called unphosphorylated R887A; source: SF9 cells, purified in-house following the same procedure as IRE1α KR; not shown: His6, N-terminal, cleaved
As to B1, the “stoichiometry N” value came to 2.

B2: IRE1-KR-R887A, phosphorylated (domain or fragment, human, UniProt O75460 547-977, looked up)
chain: B1 chain
modifications: phosphorylated (allowed to autophosphorylate in the presence of ATP and MgCl2); sites not stated for this mutant
notes: IRE1α, human, kinase-endoribonuclease (KR) module, residues G547-L977, with R887A; also called phosphorylated IRE1-KR-R887A; IRE1-KR-3P R887A; source: SF9 cells, purified in-house following the same procedure as IRE1α KR; autophosphorylated with 2 mM ATP and 10 mM MgCl2, then SEC; not shown: His6, N-terminal, cleaved
As to B2, the “stoichiometry N” value is 2.
